Results reported in the supplement of paper PMC10567573.

B1: SNAP91 (parent)
chain: FSTDAFSSPPQGASPVPESSLTAD

Variants of: B1
Test: protein stability index of a GFP-peptide fusion (GPS, HEK-293T) (PSI 1-6); higher = more stable
Conditions: c terminus: a fixed tail appended
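Note: lentivirally expressed fusions sorted by FACS into six bins by GFP to DsRed ratio, PSI derived from sequencing read proportions per bin multiplied by bin number.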

Point of comparison: FSTDAFSSPPQGASPVPESSLLAD [T22L], protein stability index 3.63. Against it:
- FSTDAFSSPPQGASPVPEMSLTAD [S19M] — lower, 2.66
- FSTDAFSSPPQGASPVPEHSLTAD [S19H] — lower, 3.13
- FSTDAFSSPPQGASPVPETSLTAD [S19T] — lower, 3.54
- FSTDAFSSPPQGASPVPEKSLTAD [S19K] — lower, 2.23
- FSTDAFSSPPQGASPVPEASLTAD [S19A] — lower, 3.08
- FSTDAFSSPPQGASPVPEGSLTAD [S19G] — lower, 2.46
- FSTDAFSSPPQGASPVPEFSLTAD [S19F] — lower, 2.58
- FSTDAFSSPPQGASPVPEQSLTAD [S19Q] — lower, 3.1
- FSTDAFSSPPQGASPVPEISLTAD [S19I] — lower, 2.91
- FSTDAFSSPPQGASPVPENSLTAD [S19N] — lower, 3.44
- FSTDAFSSPPQGASPVPEWSLTAD [S19W] — lower, 2.76
- FSTDAFSSPPQGASPVPELSLTAD [S19L] — lower, 2.79
- FSTDAFSSPPQGASPVPERSLTAD [S19R] — lower, 2.55
- FSTDAFSSPPQGASPVPEDSLTAD [S19D] — lower, 3.6
- FSTDAFSSPPQGASPVPEESLTAD [S19E] — lower, 3.19
- FSTDAFSSPPQGASPVPEPSLTAD [S19P] — lower, 3.09
- FSTDAFSSPPQGASPVPEVSLTAD [S19V] — lower, 2.85
- FSTDAFSSPPQGASPVPECSLTAD [S19C] — lower, 3.19
- FSTDAFSSPPQGASPVPEYSLTAD [S19Y] — lower, 3.25
- FSTDAFSSPPQGASPVPESSRTAD [L21R] — lower, 3.11
- FSTDAFSSPPQGASPVPESSDTAD [L21D] — higher, 3.86
- FSTDAFSSPPQGASPVPESSGTAD [L21G] — lower, 3.14
- FSTDAFSSPPQGASPVPESSHTAD [L21H] — lower, 3.47
- FSTDAFSSPPQGASPVPESSETAD [L21E] — higher, 4.1
- FSTDAFSSPPQGASPVPESSFTAD [L21F] — lower, 3.1
- FSTDAFSSPPQGASPVPESSYTAD [L21Y] — lower, 2.81
- FSTDAFSSPPQGASPVPESSTTAD [L21T] — lower, 3.45
- FSTDAFSSPPQGASPVPESSKTAD [L21K] — lower, 3.12
- FSTDAFSSPPQGASPVPESSCTAD [L21C] — lower, 3.38
- FSTDAFSSPPQGASPVPESSATAD [L21A] — lower, 3.44
- FSTDAFSSPPQGASPVPESSSTAD [L21S] — lower, 3.58
- FSTDAFSSPPQGASPVPESSITAD [L21I] — lower, 3.01
- FSTDAFSSPPQGASPVPESSMTAD [L21M] — lower, 3.11
- FSTDAFSSPPQGASPVPESSPTAD [L21P] — lower, 3.33
- FSTDAFSSPPQGASPVPESSNTAD [L21N] — lower, 3.39
- FSTDAFSSPPQGASPVPESSQTAD [L21Q] — lower, 3.53
- FSTDAFSSPPQGASPVPESSVTAD [L21V] — lower, 3.39
- FSTDAFSSPPQGASPVPESSWTAD [L21W] — lower, 2.92
- FSTDAFSSPPQGASPVPESSLTAF [D24F] — lower, 2.12
- FSTDAFSSPPQGASPVPESSLTAE [D24E] — lower, 3.02
- FSTDAFSSPPQGASPVPESSLTAK [D24K] — lower, 3.18
- FSTDAFSSPPQGASPVPESSLTAT [D24T] — lower, 2.89
- FSTDAFSSPPQGASPVPESSLTAM [D24M] — lower, 3.19
- FSTDAFSSPPQGASPVPESSLTAC [D24C] — lower, 2.83
- FSTDAFSSPPQGASPVPESSLTAW [D24W] — lower, 1.87
- FSTDAFSSPPQGASPVPESSLTAR [D24R] — lower, 3.49
- FSTDAFSSPPQGASPVPESSLTAL [D24L] — lower, 3.07
- FSTDAFSSPPQGASPVPESSLTAA [D24A] — lower, 3.03
- FSTDAFSSPPQGASPVPESSLTAH [D24H] — lower, 2.42
- FSTDAFSSPPQGASPVPESSLTAI [D24I] — lower, 2.92
- FSTDAFSSPPQGASPVPESSLTAS [D24S] — lower, 2.78
- FSTDAFSSPPQGASPVPESSLTAQ [D24Q] — lower, 3.01
- FSTDAFSSPPQGASPVPESSLTAV [D24V] — lower, 2.18
- FSTDAFSSPPQGASPVPESSLTAY [D24Y] — lower, 2.25
- FSTDAFSSPPQGASPVPESSLTAG [D24G] — lower, 2.75
- FSTDAFSSPPQGASPVPESSLTAN [D24N] — lower, 2.62
- FSTDAFSSPPQGASPVPESSLQAD [T22Q] — lower, 3.36
- FSTDAFSSPPQGASPVPESSLFAD [T22F] — lower, 2.96
- FSTDAFSSPPQGASPVPESSLAAD [T22A] — lower, 2.92
- FSTDAFSSPPQGASPVPESSLCAD [T22C] — lower, 3.3
- FSTDAFSSPPQGASPVPESSLNAD [T22N] — lower, 3.09
- FSTDAFSSPPQGASPVPESSLEAD [T22E] — higher, 3.86
- FSTDAFSSPPQGASPVPESSLYAD [T22Y] — lower, 3.21
- FSTDAFSSPPQGASPVPESSLPAD [T22P] — lower, 2.83
- FSTDAFSSPPQGASPVPESSLIAD [T22I] — lower, 3.21
- FSTDAFSSPPQGASPVPESSLKAD [T22K] — lower, 2.64
- FSTDAFSSPPQGASPVPESSLHAD [T22H] — lower, 3.09
- FSTDAFSSPPQGASPVPESSLRAD [T22R] — lower, 2.93
- FSTDAFSSPPQGASPVPESSLMAD [T22M] — lower, 3.31
- FSTDAFSSPPQGASPVPESSLDAD [T22D] — lower, 3.46
- FSTDAFSSPPQGASPVPESSLWAD [T22W] — lower, 2.28
- FSTDAFSSPPQGASPVPESSLSAD [T22S] — the same, 3.63
- FSTDAFSSPPQGASPVPESSLGAD [T22G] — lower, 3.3
- FSTDAFSSPPQGASPVPESSLVAD [T22V] — lower, 3.41
- FSTDAFSSPPQGASPVPESCLTAD [S20C] — lower, 3.18
- FSTDAFSSPPQGASPVPESALTAD [S20A] — lower, 3.56
- FSTDAFSSPPQGASPVPESKLTAD [S20K] — lower, 3.09
- FSTDAFSSPPQGASPVPESHLTAD [S20H] — lower, 3.04
- FSTDAFSSPPQGASPVPESGLTAD [S20G] — lower, 3.04
- FSTDAFSSPPQGASPVPESDLTAD [S20D] — lower, 3.48
- FSTDAFSSPPQGASPVPESLLTAD [S20L] — lower, 2.72
- FSTDAFSSPPQGASPVPESNLTAD [S20N] — lower, 3.38
- FSTDAFSSPPQGASPVPESRLTAD [S20R] — lower, 3.13
- FSTDAFSSPPQGASPVPESILTAD [S20I] — lower, 2.81
- FSTDAFSSPPQGASPVPESMLTAD [S20M] — lower, 2.98
- FSTDAFSSPPQGASPVPESVLTAD [S20V] — lower, 2.77
- FSTDAFSSPPQGASPVPESPLTAD [S20P] — lower, 2.46
- FSTDAFSSPPQGASPVPESELTAD [S20E] — lower, 3.49
- FSTDAFSSPPQGASPVPESYLTAD [S20Y] — lower, 2.93
- FSTDAFSSPPQGASPVPESTLTAD [S20T] — lower, 3.47
- FSTDAFSSPPQGASPVPESQLTAD [S20Q] — lower, 3.04
- FSTDAFSSPPQGASPVPESFLTAD [S20F] — lower, 2.68
- FSTDAFSSPPQGASPVPESWLTAD [S20W] — lower, 2.52
